Results from the supplement of paper PMC10065799, “High-throughput profiling of sequence recognition by tyrosine kinases and SH2 domains using bacterial peptide display” (eLife, 2023).

What was measured:
c-Src SH2 = test: SH2 binding enrichment of the phosphorylated peptide, bacterial display (enrichment ratio); higher = better substrate or ligand; peptides without Tyr show the background
SHP2-C SH2 = test: as above
Grb2 SH2 = Grb2 SH2 (UniProt P62993); test: as above
Jak2 = Jak2 (UniProt O60674); test: phosphorylation enrichment, bacterial display (enrichment ratio); higher = better substrate or ligand; peptides without Tyr show the background
Sequence of Jak2 (O60674 whole entry, looked up): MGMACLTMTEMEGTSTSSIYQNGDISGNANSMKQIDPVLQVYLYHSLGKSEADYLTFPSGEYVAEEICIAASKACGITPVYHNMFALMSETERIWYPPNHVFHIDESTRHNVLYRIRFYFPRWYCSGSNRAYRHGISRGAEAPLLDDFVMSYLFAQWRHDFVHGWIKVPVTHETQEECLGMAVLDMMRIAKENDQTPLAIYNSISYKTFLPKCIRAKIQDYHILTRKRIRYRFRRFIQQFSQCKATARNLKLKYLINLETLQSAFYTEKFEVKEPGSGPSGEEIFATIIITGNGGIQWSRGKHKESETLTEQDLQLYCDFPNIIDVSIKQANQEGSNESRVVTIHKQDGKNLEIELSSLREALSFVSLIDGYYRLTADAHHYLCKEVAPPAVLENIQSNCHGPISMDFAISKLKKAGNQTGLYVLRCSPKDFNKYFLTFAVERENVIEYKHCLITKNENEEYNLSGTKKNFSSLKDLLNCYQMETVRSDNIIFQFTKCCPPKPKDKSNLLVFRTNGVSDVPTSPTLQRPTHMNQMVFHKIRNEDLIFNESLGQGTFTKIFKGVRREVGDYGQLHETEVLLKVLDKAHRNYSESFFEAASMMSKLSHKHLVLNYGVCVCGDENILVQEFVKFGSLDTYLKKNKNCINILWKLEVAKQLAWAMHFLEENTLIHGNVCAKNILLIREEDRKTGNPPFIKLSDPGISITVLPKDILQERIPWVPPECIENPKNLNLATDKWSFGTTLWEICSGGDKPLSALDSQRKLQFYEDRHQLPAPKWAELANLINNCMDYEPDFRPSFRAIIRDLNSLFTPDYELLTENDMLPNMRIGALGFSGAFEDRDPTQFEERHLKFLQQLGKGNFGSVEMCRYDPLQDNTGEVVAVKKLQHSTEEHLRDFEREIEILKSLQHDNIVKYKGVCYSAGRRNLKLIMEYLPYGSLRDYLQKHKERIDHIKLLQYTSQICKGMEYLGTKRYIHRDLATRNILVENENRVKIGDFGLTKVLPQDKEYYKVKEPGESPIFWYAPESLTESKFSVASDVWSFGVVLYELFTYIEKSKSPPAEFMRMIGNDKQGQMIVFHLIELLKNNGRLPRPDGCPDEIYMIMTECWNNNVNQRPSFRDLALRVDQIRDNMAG

FGFR3 = FGFR3 (UniProt P22607); test: as above
EPHB1 = EPHB1 (UniProt P54762); test: as above
Sequence of EPHB1 (P54762 whole entry, looked up): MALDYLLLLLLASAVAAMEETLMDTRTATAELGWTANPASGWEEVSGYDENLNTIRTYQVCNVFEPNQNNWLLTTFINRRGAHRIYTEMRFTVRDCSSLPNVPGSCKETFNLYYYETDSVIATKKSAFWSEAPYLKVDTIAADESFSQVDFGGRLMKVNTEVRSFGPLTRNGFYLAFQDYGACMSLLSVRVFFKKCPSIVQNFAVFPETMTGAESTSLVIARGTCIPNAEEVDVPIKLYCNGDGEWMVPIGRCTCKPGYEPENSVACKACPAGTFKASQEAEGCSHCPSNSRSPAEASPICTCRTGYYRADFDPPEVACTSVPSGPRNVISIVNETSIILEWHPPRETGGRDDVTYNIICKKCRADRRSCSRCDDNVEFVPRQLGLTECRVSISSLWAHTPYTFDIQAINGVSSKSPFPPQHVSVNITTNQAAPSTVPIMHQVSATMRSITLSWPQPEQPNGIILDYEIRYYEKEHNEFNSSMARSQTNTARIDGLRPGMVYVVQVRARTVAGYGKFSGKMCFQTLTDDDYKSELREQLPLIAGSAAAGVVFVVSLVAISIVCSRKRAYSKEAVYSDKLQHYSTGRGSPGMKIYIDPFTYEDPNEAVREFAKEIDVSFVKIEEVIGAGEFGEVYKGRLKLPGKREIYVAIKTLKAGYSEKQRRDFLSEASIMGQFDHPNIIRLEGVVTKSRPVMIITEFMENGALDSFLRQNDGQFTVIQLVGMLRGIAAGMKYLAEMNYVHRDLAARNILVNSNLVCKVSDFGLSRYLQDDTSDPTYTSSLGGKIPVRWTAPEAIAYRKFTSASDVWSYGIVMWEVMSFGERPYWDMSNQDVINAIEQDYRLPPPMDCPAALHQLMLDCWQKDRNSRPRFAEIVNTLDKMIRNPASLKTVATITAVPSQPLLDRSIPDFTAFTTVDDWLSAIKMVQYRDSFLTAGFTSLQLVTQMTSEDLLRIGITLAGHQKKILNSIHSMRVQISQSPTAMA

Fes = Fes (UniProt P07332); test: as above
EPHB2 = EPHB2 (UniProt P29323); test: as above
Sequence of EPHB2 (P29323 whole entry, looked up): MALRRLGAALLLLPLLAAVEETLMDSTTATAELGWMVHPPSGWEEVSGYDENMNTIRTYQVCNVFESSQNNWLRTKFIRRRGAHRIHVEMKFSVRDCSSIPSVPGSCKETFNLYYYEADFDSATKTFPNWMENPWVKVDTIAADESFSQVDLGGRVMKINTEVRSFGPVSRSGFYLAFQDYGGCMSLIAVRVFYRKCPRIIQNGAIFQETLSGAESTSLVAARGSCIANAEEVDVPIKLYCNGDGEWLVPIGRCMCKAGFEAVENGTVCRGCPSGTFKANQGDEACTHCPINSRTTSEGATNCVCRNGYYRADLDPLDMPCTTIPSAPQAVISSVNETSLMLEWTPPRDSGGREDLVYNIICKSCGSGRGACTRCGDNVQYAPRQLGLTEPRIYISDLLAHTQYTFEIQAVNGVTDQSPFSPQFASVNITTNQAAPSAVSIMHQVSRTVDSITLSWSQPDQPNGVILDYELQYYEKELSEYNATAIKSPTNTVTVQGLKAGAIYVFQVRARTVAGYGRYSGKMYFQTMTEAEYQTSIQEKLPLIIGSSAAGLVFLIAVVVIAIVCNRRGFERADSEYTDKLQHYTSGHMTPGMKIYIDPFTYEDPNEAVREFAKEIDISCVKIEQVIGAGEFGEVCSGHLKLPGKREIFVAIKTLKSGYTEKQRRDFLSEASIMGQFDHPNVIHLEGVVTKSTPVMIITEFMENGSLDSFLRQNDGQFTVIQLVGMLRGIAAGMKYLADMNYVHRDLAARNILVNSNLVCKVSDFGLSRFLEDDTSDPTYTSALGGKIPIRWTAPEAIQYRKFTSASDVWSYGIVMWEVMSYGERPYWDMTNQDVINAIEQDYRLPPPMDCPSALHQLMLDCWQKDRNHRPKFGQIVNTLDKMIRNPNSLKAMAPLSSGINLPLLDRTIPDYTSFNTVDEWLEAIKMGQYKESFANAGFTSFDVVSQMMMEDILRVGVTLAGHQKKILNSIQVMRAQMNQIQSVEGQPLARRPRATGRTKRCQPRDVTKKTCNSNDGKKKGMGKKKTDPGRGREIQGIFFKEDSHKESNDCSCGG

c-Src = test: as above
AncSZ = test: as above
FGFR1 = FGFR1 (UniProt P11362); test: as above
Fyn = Fyn (UniProt P06241); test: as above
Hck = Hck (UniProt P08631); test: as above
Sequence of Hck (P08631 whole entry, looked up): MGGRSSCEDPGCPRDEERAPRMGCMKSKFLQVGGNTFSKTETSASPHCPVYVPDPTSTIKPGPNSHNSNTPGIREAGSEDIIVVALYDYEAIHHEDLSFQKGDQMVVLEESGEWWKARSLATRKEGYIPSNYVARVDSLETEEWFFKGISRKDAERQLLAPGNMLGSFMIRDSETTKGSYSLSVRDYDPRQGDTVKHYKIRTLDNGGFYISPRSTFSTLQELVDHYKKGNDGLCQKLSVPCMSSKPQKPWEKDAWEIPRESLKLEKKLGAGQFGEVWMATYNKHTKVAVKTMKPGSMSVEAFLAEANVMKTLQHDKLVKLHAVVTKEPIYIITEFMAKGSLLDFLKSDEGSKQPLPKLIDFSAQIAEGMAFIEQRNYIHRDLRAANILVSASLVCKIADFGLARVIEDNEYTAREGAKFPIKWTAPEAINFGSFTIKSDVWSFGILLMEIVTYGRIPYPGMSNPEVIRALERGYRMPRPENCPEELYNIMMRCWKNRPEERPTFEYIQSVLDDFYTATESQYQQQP

Fer (mouse) = test: as above
MERTK = MERTK (UniProt Q12866); test: as above
Sequence of MERTK (Q12866 whole entry, looked up): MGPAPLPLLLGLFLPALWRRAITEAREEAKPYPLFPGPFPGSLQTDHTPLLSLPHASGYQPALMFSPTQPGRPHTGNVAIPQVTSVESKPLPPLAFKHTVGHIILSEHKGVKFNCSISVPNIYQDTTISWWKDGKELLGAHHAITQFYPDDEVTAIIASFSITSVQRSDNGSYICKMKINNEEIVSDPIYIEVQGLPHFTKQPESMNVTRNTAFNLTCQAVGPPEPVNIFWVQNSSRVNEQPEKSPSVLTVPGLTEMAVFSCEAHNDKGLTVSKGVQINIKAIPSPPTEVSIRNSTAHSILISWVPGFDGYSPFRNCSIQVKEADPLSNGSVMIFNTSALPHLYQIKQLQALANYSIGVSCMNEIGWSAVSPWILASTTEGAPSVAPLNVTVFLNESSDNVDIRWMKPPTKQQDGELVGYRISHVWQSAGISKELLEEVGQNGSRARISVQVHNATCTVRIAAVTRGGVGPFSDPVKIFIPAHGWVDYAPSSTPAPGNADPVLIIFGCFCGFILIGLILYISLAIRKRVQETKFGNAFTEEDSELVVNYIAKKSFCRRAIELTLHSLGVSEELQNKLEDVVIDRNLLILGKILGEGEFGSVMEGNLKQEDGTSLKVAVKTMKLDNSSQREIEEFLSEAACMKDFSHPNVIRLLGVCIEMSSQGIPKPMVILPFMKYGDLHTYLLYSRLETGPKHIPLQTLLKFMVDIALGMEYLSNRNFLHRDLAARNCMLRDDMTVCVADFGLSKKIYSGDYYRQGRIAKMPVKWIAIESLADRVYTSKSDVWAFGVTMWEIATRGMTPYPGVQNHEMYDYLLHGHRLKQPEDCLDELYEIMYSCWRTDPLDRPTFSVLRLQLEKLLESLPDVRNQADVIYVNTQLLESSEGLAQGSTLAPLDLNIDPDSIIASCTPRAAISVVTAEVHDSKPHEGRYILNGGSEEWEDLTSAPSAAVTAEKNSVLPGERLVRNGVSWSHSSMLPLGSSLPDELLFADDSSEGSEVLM

c-Abl (mouse) = test: as above
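Throughout, for SH2 binding enrichment of the phosphorylated peptide, bacterial display: peptide library displayed on the E. coli surface as eCPX fusions, selected cells deep-sequenced, score is each peptide's frequency after selection divided by its frequency in the input.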
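Throughout, for phosphorylation enrichment, bacterial display: 11-residue human phosphosite peptides and single-mutation variants displayed on the E. coli surface, counted by deep sequencing, each peptide's frequency after selection divided by its frequency in the unselected input library; frequency after pTyr selection over input frequency; kinase dosed for 20-30% of maximal phosphorylation in three min.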

Row | Sequence | SH2 binding enrichment (c-Src SH2) | SH2 binding enrichment (SHP2-C SH2) | SH2 binding enrichment (Grb2 SH2) | phosphorylation enrichment (Jak2) | phosphorylation enrichment (FGFR3) | phosphorylation enrichment (EPHB1) | phosphorylation enrichment (Fes) | phosphorylation enrichment (EPHB2) | phosphorylation enrichment (c-Src) | phosphorylation enrichment (AncSZ) | phosphorylation enrichment (FGFR1) | phosphorylation enrichment (Fyn) | phosphorylation enrichment (Hck) | phosphorylation enrichment (Fer (mouse)) | phosphorylation enrichment (MERTK) | phosphorylation enrichment (c-Abl (mouse))
1 | LPKDLYLISQM [LARP4_Y141_S137P] | 0.406 | 0.795 | 1.02 | 1.46 | 1.55 | 0.784 | 2.13 | 0.757 | 0.788 | 2.15 | 1.15 | 0.69 | 0.891 | 0.646 | 0.785 | 1.2
2 | LPKEQYLFTKE [AFG3L2_Y614_YF] | 0.762 | 1.06 | 0.911 | 0.532 | 1.51 | 1.2 | 1.49 | 0.471 | 0.406 | 0.83 | 0.623 | 1.59 | 0.996 | 0.817 | 0.499 | 0.551
3 | LPSKDYAEVGR [HP_Y272] | 2.68 | 0.717 | 0.766 | 0.684 | 0.895 | 1.15 | 2.22 | 1.24 | 0.709 | 0.654 | 0.918 | 0.735 | 0.951 | 0.801 | 0.801 | 0.726
4 | LSSEMCVKSYT [F5_Y2149_Y2149C] | 0.451 | 0.452 | 0.665 | 2.4 | 1.04 | 1.54 | 1.76 | 0.888 | 1.16 | 1.55 | 1.23 | 1.2 | 0.877 | 1.46 | 1.1 | 1.59
5 | LSSETYVKSFT [F5_Y2149_M2148T_YF] | 0.587 | 0.74 | 0.798 | 1.06 | 0.735 | 0.789 | 1.14 | 1.7 | 0.512 | 0.969 | 0.743 | 0.665 | 0.858 | 0.511 | 0.379 | 0.595
6 | LTKQEYDEAGP [ACTA1_Y364_I359L] | 8.7 | 0.874 | 1.08 | 1.62 | 1.07 | 0.696 | 1.71 | 1.23 | 0.996 | 2.03 | 0.811 | 0.809 | 1.15 | 0.638 | 0.817 | 1.39
7 | LTSVKYLLSAT [GSDMC_Y26_P23S] | 0.679 | 0.801 | 1.03 | 0.818 | 0.541 | 0.465 | 0.635 | 0.566 | 0.393 | 0.703 | 0.482 | 0.418 | 0.466 | 0.406 | 0.376 | 0.437
8 | LVRAFYCERRW [CARD11_Y970_R975W] | 0.49 | 0.681 | 0.953 | 0.857 | 0.697 | 0.671 | 0.745 | 0.623 | 0.489 | 1.05 | 0.575 | 0.649 | 0.634 | 0.59 | 0.64 | 0.695
9 | LYEDCYLLGTS [ASS1_Y87_R86C] | 0.962 | 0.314 | 0.933 | 1.78 | 1.28 | 7.04 | 2.12 | 3.42 | 4.68 | 2.29 | 1.26 | 4.12 | 1.9 | 13.4 | 3.13 | 1.08
10 | MARDISRASFF [ALK_Y1278_Y1278S_YF] | 0.454 | 0.716 | 1.06 | 0.53 | 0.473 | 0.463 | 0.682 | 0.467 | 0.396 | 0.626 | 0.41 | 0.443 | 0.384 | 0.392 | 0.432 | 0.545
11 | MASTSYDFCRV [BST2_Y6_YF] | 1.66 | 0.727 | 0.99 | 0.796 | 0.829 | 0.576 | 0.919 | 0.613 | 0.525 | 0.944 | 0.572 | 0.486 | 0.473 | 2.25 | 0.709 | 0.622
12 | MDNQEYKDAFT [BRDT_Y331_K336T_YF] | 0.617 | 0.69 | 0.685 | 1.15 | 0.802 | 0.56 | 1.3 | 0.913 | 0.458 | 1.14 | 0.539 | 0.486 | 0.488 | 0.539 | 0.402 | 0.737
13 | MFFSTYDRDND [FGB_Y408] | 0.778 | 1.03 | 0.845 | 1.03 | 0.601 | 0.541 | 1.05 | 0.578 | 0.589 | 0.849 | 0.673 | 0.426 | 0.511 | 0.501 | 0.408 | 0.84
14 | MGCVNYGAYIN [GLB1_Y485_R482C] | 0.569 | 0.606 | 1.44 | 1.56 | 0.851 | 0.793 | 1.37 | 0.83 | 1.08 | 1.32 | 0.469 | 0.578 | 0.572 | 0.571 | 0.483 | 1.39
15 | MIRSAYALGGL [CPS1_Y590] | 0.46 | 0.689 | 0.715 | 0.597 | 0.473 | 0.358 | 0.534 | 0.435 | 0.384 | 0.54 | 0.392 | 0.41 | 0.386 | 0.32 | 0.449 | 0.417
16 | MKSIKYMDKEI [CCDC60_Y41] | 0.405 | 0.525 | 0.797 | 0.603 | 0.389 | 0.399 | 0.569 | 0.392 | 0.447 | 0.578 | 0.452 | 0.375 | 0.402 | 0.514 | 0.44 | 0.457
17 | MLEAPYVDRNS [F10_Y384_V382A] | 0.439 | 0.743 | 0.827 | 0.739 | 0.557 | 0.452 | 0.954 | 0.451 | 0.435 | 0.747 | 0.455 | 0.465 | 0.497 | 0.391 | 0.343 | 0.689
18 | MQMEEYRGWVE [BTNL2_Y91] | 0.391 | 0.392 | 0.946 | 1.25 | 0.599 | 0.503 | 1.07 | 0.711 | 0.553 | 1.22 | 0.488 | 0.409 | 0.464 | 0.449 | 0.423 | 0.545
19 | MSPPGYKLVTG [GJA1_Y286] | 0.286 | 0.512 | 0.701 | 0.686 | 0.533 | 0.667 | 0.715 | 0.381 | 0.429 | 0.541 | 0.476 | 0.427 | 0.418 | 0.516 | 0.397 | 0.485

Continued, in another order:

Row | SH2 binding enrichment (c-Src SH2) | SH2 binding enrichment (SHP2-C SH2) | SH2 binding enrichment (Grb2 SH2) | Sequence | phosphorylation enrichment (Jak2) | phosphorylation enrichment (FGFR3) | phosphorylation enrichment (EPHB1) | phosphorylation enrichment (Fes) | phosphorylation enrichment (EPHB2) | phosphorylation enrichment (c-Src) | phosphorylation enrichment (AncSZ) | phosphorylation enrichment (FGFR1) | phosphorylation enrichment (Fyn) | phosphorylation enrichment (Hck) | phosphorylation enrichment (Fer (mouse)) | phosphorylation enrichment (MERTK) | phosphorylation enrichment (c-Abl (mouse))
20 | 1.48 | 1.01 | 1.2 | LPVHFYGHVEH [PYGM_Y204] | 1.63 | 1.66 | 1.33 | 1.74 | 0.889 | 0.803 | 1.68 | 1.54 | 1.58 | 0.935 | 1.9 | 1.07 | 1.26
21 | 0.42 | 0.675 | 0.697 | LRGEDYGFSVD [PRKCI_Y430] | 1 | 0.835 | 0.686 | 1.35 | 0.668 | 0.512 | 1.1 | 0.587 | 0.518 | 0.58 | 0.636 | 0.623 | 1.12
22 | 0.783 | 0.82 | 1.05 | LRSKQYLRNPP [SHC1_Y315_F312S] | 0.355 | 0.37 | 0.426 | 0.619 | 0.359 | 0.399 | 0.376 | 0.277 | 0.452 | 0.4 | 0.413 | 0.364 | 0.575
23 | 0.506 | 0.486 | 0.909 | LSPNMYNSKFW [TARSL2_Y457_L461F] | 1.58 | 0.924 | 1.41 | 1.6 | 1.1 | 1.35 | 1.24 | 1.24 | 0.911 | 1.25 | 0.808 | 1.11 | 1.1
24 | 0.51 | 0.763 | 1.09 | LSPNMYNSKLW [TARSL2_Y457] | 0.561 | 1.13 | 0.632 | 1.19 | 0.753 | 0.573 | 0.879 | 0.75 | 0.622 | 0.831 | 0.5 | 0.603 | 0.726
25 | 0.444 | 0.633 | 0.836 | LVTRSYLLGNS [LMNA_Y646] | 1.27 | 0.939 | 0.931 | 1.52 | 0.68 | 0.854 | 1.37 | 0.841 | 0.823 | 0.708 | 0.85 | 0.794 | 1.14
26 | 0.485 | 0.787 | 0.887 | MANYMYKAGPS [MAML2_Y515] | 0.497 | 0.496 | 1.32 | 0.616 | 0.963 | 0.556 | 0.636 | 0.465 | 0.508 | 0.51 | 0.358 | 0.584 | 1.04
27 | 2.79 | 0.956 | 0.852 | MAYDRYAAICS [OR8H2_Y123_H120Y] | 1.04 | 0.687 | 0.699 | 1.35 | 0.828 | 0.661 | 0.94 | 0.526 | 0.526 | 0.76 | 0.597 | 0.835 | 0.839
28 | 0.705 | 0.784 | 1.07 | MCITRYERESQ [PRNP_Y218_Q217R] | 0.769 | 0.541 | 0.429 | 0.813 | 0.528 | 0.404 | 1.03 | 0.433 | 0.404 | 0.469 | 0.488 | 0.457 | 0.466
29 | 8.92 | 0.762 | 0.743 | MEIHAYHKLLE [LMNA_Y376_R377H] | 1.03 | 0.746 | 0.475 | 1.25 | 0.588 | 0.441 | 0.974 | 0.474 | 0.445 | 0.552 | 0.422 | 0.403 | 0.691
30 | 0.572 | 0.868 | 0.89 | MFRVQYNSSVD [LRFN1_Y458_Q455R_YF] | 0.908 | 0.597 | 0.49 | 0.931 | 0.477 | 0.386 | 0.769 | 0.439 | 0.424 | 0.406 | 0.415 | 0.349 | 0.552
31 | 0.477 | 0.845 | 0.682 | MGSYNYLGFAW [SPTLC2_Y178_R183W] | 3.68 | 2.24 | 3.69 | 0.937 | 1.88 | 1.04 | 1.11 | 2.96 | 0.708 | 1.4 | 0.617 | 3.65 | 0.737
32 | 0.799 | 0.78 | 1.34 | MHYSNYVSKGS [PDGFRA_Y849_D846Y] | 0.467 | 0.397 | 0.412 | 0.533 | 0.472 | 0.495 | 0.617 | 0.421 | 0.424 | 0.478 | 0.458 | 0.526 | 0.432
33 | 0.656 | 0.809 | 1.03 | MSRDVYSIDFF [NTRK2_Y702_T704I_YF] | 0.889 | 1.2 | 1.23 | 1.05 | 1.17 | 6.79 | 1.02 | 1.61 | 8.38 | 4.17 | 1.16 | 7.45 | 0.652
